Biological target: Rabbit skeletal actin, filamentous (F-actin) (rabbit) (UniProt P68135)
Test: fluorescence microscopy of purified drebrin on actin filaments

fraction of actin filaments heavily (>50%) decorated by drebrin: 16%
Substance: mouse drebrin isoform E (natural protein)

Reference: article PMC12974149
